13 molecules from US20130078216A1 (published 2013) can be followed below.

Where a chain is given by its changes, count along the chain named. Names may count otherwise.

The target in experiment [1] is T1, (His)6-Mouse ASGPR H1 (mouse, UniProt P34927 61-284).
T1 construct: Expressed in HEK293E, Ni-NTA purified; coated on a CM5 chip or biotinylated and captured on a streptavidin chip; The entry includes the His tag; also called mouse (His)6-ASGPR H1; mouse (His)6-ASGPR H1 extracellular domain
T1 sequence: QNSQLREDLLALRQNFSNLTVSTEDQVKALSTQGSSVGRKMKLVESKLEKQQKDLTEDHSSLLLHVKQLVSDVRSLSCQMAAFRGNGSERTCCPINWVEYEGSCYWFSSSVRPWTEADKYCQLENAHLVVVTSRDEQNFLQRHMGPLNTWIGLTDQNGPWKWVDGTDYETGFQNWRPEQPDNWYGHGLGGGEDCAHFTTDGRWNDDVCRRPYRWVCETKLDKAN
The experiment in a line: BIAcore epitope mapping, 1 µM dAb over (His)6 mouse ASGPR H1 on a CM5 chip. Here is the method:
After coating a BlAcore CM5 chip with (His)₆ mouse ASGPR H1, protein A or protein L purified dAb proteins were injected one after the other and in combination over the same antigen surface. The resulting binding RUs were determined in order to see whether the maximal binding capacity of the chip by one dAb molecule can be exceeded by simultaneously injecting a second dAb onto the same antigen surface. If so, the second dAb clearly binds a different epitope compared to the first one. 1 μM concentrations of each dAb were injected at a flow rate of […], both in single injection and co-injection experiments. If injection of the second dAb in the presence of the first dAb reduced the observed binding to the chip surface by greater than 20% (in comparison to observed binding of the second dAb to the chip surface in the absence of the first dAb) both dAbs were assumed to bind overlapping epitopes within the antigen (FIG. 6). Based on results obtained in these experiments murine ASGPR specific dAb clones could be grouped according to epitopes bound within the antigen as shown in FIG. 12.

The target in experiment [2] is T2, mouse ASGPR on the murine liver cell line Hepa1c1c7 (and on mouse liver in vivo) (mouse, UniProt P34927 1-284).
T2 sequence (looked up): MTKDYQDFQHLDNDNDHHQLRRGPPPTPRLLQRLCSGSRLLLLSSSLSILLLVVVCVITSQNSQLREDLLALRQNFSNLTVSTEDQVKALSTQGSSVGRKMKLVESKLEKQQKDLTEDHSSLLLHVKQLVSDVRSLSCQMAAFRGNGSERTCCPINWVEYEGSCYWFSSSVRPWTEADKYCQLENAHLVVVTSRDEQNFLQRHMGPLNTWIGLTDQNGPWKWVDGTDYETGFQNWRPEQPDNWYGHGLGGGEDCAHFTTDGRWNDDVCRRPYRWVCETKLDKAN
Kind of experiment: cell-based or functional assay.

In experiment [3] the target is T3, (His)6-Human ASGPR H1 (human, UniProt P07306 62-291).
T3 construct: Expressed in HEK293E, Ni-NTA purified; coated on a CM5 chip or biotinylated and captured on a streptavidin chip; The entry includes the His tag; also called human (His)6-ASGPR H1; Human (His)6 ASGPR H1 Q62-L291
T3 sequence: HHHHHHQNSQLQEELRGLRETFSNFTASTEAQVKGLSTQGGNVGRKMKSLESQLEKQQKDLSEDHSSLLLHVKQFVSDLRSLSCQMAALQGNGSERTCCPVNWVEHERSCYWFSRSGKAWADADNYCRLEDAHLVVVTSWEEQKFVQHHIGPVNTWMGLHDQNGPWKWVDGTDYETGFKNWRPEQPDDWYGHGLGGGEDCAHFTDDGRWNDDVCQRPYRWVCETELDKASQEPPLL
Kind of experiment: BIAcore, biotinylated (His)6-ASGPR H1 on a streptavidin chip, 62 nM dAb, 40 µl/min. Here is the method:
( )to human (His)₆-ASGPR H1. Biotinylated (His)₆-ASGPR H1 was immobilised on a Biacore streptavidin chip surface and 62 nM dAb passed over at a flow rate of 40 μl.min⁻¹.
For orientation: Surface plasmon resonance follows binding to a sensor surface in real time, without labels.

Experiment [4] has as its target T4, (His)6-Human ASGPR H1 Lectin Domain (human, UniProt P07306 154-291).
T4 construct: Biotinylated and immobilised on a streptavidin chip; also called human (His)6-ASGPR H1 lectin domain; human (His)6 lectin domain
T4 sequence: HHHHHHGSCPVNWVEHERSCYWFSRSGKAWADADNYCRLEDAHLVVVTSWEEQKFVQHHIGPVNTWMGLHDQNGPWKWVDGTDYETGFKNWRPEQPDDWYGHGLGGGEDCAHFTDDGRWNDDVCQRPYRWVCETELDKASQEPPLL
The experiment in a line: BIAcore, biotinylated antigen on a streptavidin chip, 60 nM dAb, 40 µl/min.

Experiment [5] addresses T5, (His)6-Human ASGPR H1 Stalk Domain (human, UniProt P07306 62-153).
T5 construct: Biotinylated and immobilised on a streptavidin chip; also called human (His)6-ASGPR H1 stalk domain; (His)6-human ASGPR H1 stalk domain residues glutamine 62-cysteine 153
T5 sequence: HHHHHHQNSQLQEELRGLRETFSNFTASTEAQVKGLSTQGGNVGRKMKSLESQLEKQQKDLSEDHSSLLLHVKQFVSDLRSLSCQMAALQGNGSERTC
Kind of experiment: BIAcore, biotinylated stalk domain on a streptavidin chip, flow 40 µl/min. The text has this:
(§1) To assay for potential dAb binding activity human (His)₆-ASGPR H1 stalk domain, human (His)₆-ASGPR H1 lectin domain and mouse (His)₆-ASGPR H1 extracellular domain were biotinylated and immobilised on a biacore Streptavidin chip surface.

Experiment [6] deals with T6, human c-kit (His)6 negative control antigen (human, UniProt P10721 26-524, limits assumed).
T6 construct: Control antigen
T6 sequence (P10721 26-524 limits assumed): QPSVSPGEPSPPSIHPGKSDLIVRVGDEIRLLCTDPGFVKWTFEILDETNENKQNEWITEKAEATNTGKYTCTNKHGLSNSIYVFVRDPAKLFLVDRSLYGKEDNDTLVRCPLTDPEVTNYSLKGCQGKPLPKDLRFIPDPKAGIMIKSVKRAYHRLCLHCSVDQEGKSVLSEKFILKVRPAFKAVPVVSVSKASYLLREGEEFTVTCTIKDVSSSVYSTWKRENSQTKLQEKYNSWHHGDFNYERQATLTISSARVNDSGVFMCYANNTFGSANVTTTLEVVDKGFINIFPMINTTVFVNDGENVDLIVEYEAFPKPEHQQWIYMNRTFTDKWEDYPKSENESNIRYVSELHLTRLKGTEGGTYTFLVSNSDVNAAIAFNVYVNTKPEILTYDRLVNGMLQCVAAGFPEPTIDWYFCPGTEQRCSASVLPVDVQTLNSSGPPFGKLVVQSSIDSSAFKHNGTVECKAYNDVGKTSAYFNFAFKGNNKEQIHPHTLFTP
The experiment in a line: BIAcore, antigens coated on a CM5 chip, human c-kit (His)6 as negative control antigen. The method, then:
(§2) FIG. 3: Vκ and VH dAbs selected against recombinant human and mouse ASGPR proteins binding specifically to the target antigen. Antigens were coated on the surface of a CM5 BlAcore chip and protein L purified Vκ dAb DOM26m-20 (top panel) or protein A purified VH dAb DOM26h-61 (bottom panel) was passed over the chip surface at a concentration of 2.5 μM using a flow-rate of […]. In the top panel binding of dAb to (His)₆-mouse ASGPR H1 ( )or human c-kit (His)₆ negative control antigen ( ) is shown. In the bottom panel dAb binding to (His)₆-human ASGPR H1 ( )or human c-kit (His)₆ negative control antigen ( ) is shown.
(§3) Screening by BlAcore took place using dAb supernatant expressed as above diluted 1:2 with HBS-P BlAcore running buffer. Each dAb was then injected over a blank flow cell and a flow cell coated with human or mouse (His)₆-ASGPR H1 on a CM5 chip. […] All unique dAb clones were expressed in 50 ml cultures (OnEX plus carbenicillin) overnight at 37° C. and purified on protein A (VH dAbs) or protein L (Vκ dAbs). Purified dAbs were passed over a CM5 BIAcore chip coated with either human or mouse (His)₆-ASGPR H1 at 20μg/ml (FIG. 3). Those dAbs that bound specifically to (His)₆-ASGPR H1 were then analysed in the flow cytometry cell binding assay (FIG. 4).

Experiment [7] addresses T3, (His)6-Human ASGPR H1. Kind of experiment: BIAcore, antigen coated on a CM5 chip, dAb at 2.5 µM. Here is the method: as §2, §3
The target in experiment [8] is T1, (His)6-Mouse ASGPR H1. The experiment in a line: BIAcore, biotinylated antigen on a streptavidin chip, FLAG-tagged dAb, 40 µl/min.
Text: as §1

The target of experiment [9] is T4, (His)6-Human ASGPR H1 Lectin Domain. The experiment is described as above.
Text: as §1

Experiment [10] addresses T1, (His)6-Mouse ASGPR H1. Kind of experiment: BIAcore, antigen coated on a CM5 chip, dAb at 2.5 µM. Here is the method: as §2, §3

B1: DOM26m-50 (other, not shown: small tags and cut ends)
VL: DIQMTQSPSSLSASVGDRVTITCRASISIYEHLNWYQQKPGKAPTLLIWDSSGLQSGVPSRFSGSGSGTDFTLTISSLQPEDFATYYCVQHHSHPPTFGQGTKVEIKR
notes: human Vκ domain antibody (dAb) selected on mouse ASGPR H1
As for B1, in the experiment with (His)6-Mouse ASGPR H1 [1], the binding result is listed as “binds”.

B2: DOM26m-33 carrying the point mutation S116C, DOTA-Maleimide conjugated and 111In labelled (other)
VH: EVQLLESGGGLVQPGGSLRLSCAASGFTFAKYDMIWVRQAPGKGLEWVSGINHSGSRTYYADSVKGRFTISRDNSKNMLYLQMNSLRAEDTAVYYCAKSGSSFDYWGQGTLVTVSC
modifications: DOTA-Maleimide on the C-terminal cysteine (S116C), labelled with 111In
Take B2: in [2], the “counts in the liver (percent injected dose) 3 hours after intravenous injection of 111In labelled dAb in balb/c mice, against VH dummy 2” value worked out at 4.9 fold and the “counts in the liver (percent injected dose) 3 hours after intravenous injection of 111In labelled dAb in balb/c mice, against Vκ dummy” value is 12.4 fold.

B3: DOM26h-196-61 (other, not shown: small tags and cut ends)
VH: EVQLLESGGGLVQPGGSLRLSCAASGFTFEKYAMAWVRQAPGKGLEWVSRISARGVTTYYADSVKGRFTISRDNSKNTLYLQMNSLRAEDTAVYYCAKHKRHEHTRFDSWGQGTLVTVSS
Consider B3, for which the “counts in the liver (percentage of injected dose) 3 hours after injection of DOTA-NHS conjugated, 111In labelled dAb in balb/c mice, against VH dummy 2” value in [2] was around 35 fold. Also, the binding result was “binds” with (His)6-Human ASGPR H1 [3], “binds” in experiment [4] and “no binding (tested: 60 nM)” in [5].

B4: DOM26h-196 (other, not shown: small tags and cut ends)
VH: B3 VH with A53M, R54A, V56M, R101K, H102S, E103A
notes: human VH domain antibody (dAb)
For B4, the binding result with (His)6-Human ASGPR H1 [3] is on record as “binds”.

B5: DOM26h-61 (other, not shown: small tags and cut ends)
VH: EVQLLESGGGLVQPGGSLRLSCAASGFTFSTYPMHWARQAPGKGLEWVSSISPSGDSTYYADSVKGRFTISRDNSKNTLYLQMNSLRAEDTAVYYCAKNALRFDYWGQGTLVTVSS
notes: human VH domain antibody (dAb); also called VH dAb DOM26h-61
As to B5, the binding result was “no binding (tested: 2.5 µM)” in [6] and “binds” with (His)6-Human ASGPR H1 [7].

B6: DOM26m-7 (other, not shown: small tags and cut ends)
VH: EVQLLESGGGLVQPGGSLRLSCAASGFTFDDYEMGWVRQAPGKGLEWVSLISAQGRVTYYADSVKGRFTISRDNSKNTLYLQMNSLRAEDTAVYYCAKNSPSYLLNFDYWGQGTLVTVSS
notes: human VH domain antibody (dAb) selected on mouse ASGPR H1
In the case of B6, the binding result with (His)6-Mouse ASGPR H1 [1] is “binds”.

B7: DOM26h-210-2 (other, not shown: small tags and cut ends)
VH: ELQLLEFGGGLVQPGGSLRLSCTTSGFTFSRYTMGWVRQAPGKGLEWVSAIGPPGSNTYYADSVKGRFTISRDNSKNTLYLQMNSLRAEDTAVYYCAKWVMLRGRFDYWGQGTLVTVSS
On to B7, for which the results for the binding result (in the experiment with (His)6-Mouse ASGPR H1 [8]; in experiment [9]; in experiment [5]) were “binds”, “binds” and “no binding”, respectively.

B8: DOM26m-29 (other, not shown: small tags and cut ends)
VH: EVQLLESGGGLVQPGGSLRLSCAASGFTFEDSGMIWARQAPGKGLEWVSGIASEGSTTYYADSVKGRFTISRDNSKNTLYLQMNSLRAEDTAVYYCAKSGLSFDYWGQGTLVTVSS
notes: as for B6
B8: the binding result with (His)6-Mouse ASGPR H1 [1] is listed as “binds”.

B9: DOM26m-20 (other, not shown: small tags and cut ends)
VL: DIQMTQSPSSLSASVGDRVTITCRASKYIGSDLYWYQQKPGKAPKLLIGGGSRLQSGVSSRFSGSGSGTDFTLTISSLQPEDFATYYCGQKWARPLTFGQGTKVEIKR
notes: human Vκ domain antibody (dAb) selected on mouse ASGPR H1; also called Vκ dAb DOM26m-20
With B9, the values for the binding result (in experiment [6]; with (His)6-Mouse ASGPR H1 [10]) were “no binding (tested: 2.5 µM)” and “binds”, respectively.

B10: DOM26h-220-1 (other, not shown: small tags and cut ends)
VH: EVQLLESGGGLVQPGGSLRLSCAASGFTFEDYGMGWVRQAPGKGLEWVSAIGRNGSQTYYADSVKGRFTISRDNSKNTLYLQMNSLRAEDTAVYYCAKLRRGRGLNTFTLDYWGQGTLVTVSS
Regarding B10, the results for the binding result (in the experiment with (His)6-Mouse ASGPR H1 [8]; in experiment [9]; in experiment [5]) were “binds”, “binds” and “no binding”, respectively.

B11: DOM26h-161-84 (other, not shown: small tags and cut ends)
VL: DIQMTQSPSSLSASVGDRVTITCRASQAIGRWLLWYQQKPGKAPKLLIGPGSRLRSGVPSRFSGSGSGTDFTLTISSLQPEDFVTYYCQQAYAWPPTFGQGTKVEIKR
Consider B11, for which the “counts in the liver (percentage of injected dose) 3 hours after injection of DOTA-NHS conjugated, 111In labelled dAb in balb/c mice, against Vκ dummy” value in [2] was determined as 46 fold. The binding result was “binds” in [9] and “no binding” in [5].

B12: DOM26m-58 (other, not shown: small tags and cut ends)
VL: DIQMTQSPSSLSASVGDRVTITCRASQPIRNALTWYQQKPGKAPKLLIYRTSHLQSGVPSRFSGSGSGTDFTLTISSLQPEDFATYYCQQTWTMPLTFGQGTKVEIKR
notes: as for B1
Consider B12, for which the binding result with (His)6-Mouse ASGPR H1 [1] is “binds”.

B13: DOM26m-54 (other, not shown: small tags and cut ends)
VL: DIQMTQSPSSLSASVGDRVTITCRASLNIDTDLVWYQQKPGKAPKLLIAGWSGLQSGVPSRFSGSGSGTDFTLTISSLQPEDFATYYCGQFAREPFTFGQGTKVEIKR
notes: as for B1
B13: the binding result in the experiment with (His)6-Mouse ASGPR H1 [1] was “binds”.
